From paper PMC10167327 (2023)

B1: SPX2∆α7 (Vtc2(1–182)) (domain or fragment)
chain: MLFGVKLANEVYPPWKGSYINYEGLKKFLKEDSVKDGSNDKKARWDDSDESKFVEELDKELEKVYGFQLKKYNNLMERLSHLEKQTDTEAAIKALDADAFQRVLEELLSESTELDNFKRLNFTGFAKIVKKHDKLYPKYPSVKSLLEVRLKELPSHSEEYSPLLYRISFLYNILRSNFNTAS
B2: SPX2 (SPX domain of Vtc2, Vtc2(1–201)) (domain or fragment)
chain: MLFGVKLANEVYPPWKGSYINYEGLKKFLKEDSVKDGSNDKKARWDDSDESKFVEELDKELEKVYGFQLKKYNNLMERLSHLEKQTDTEAAIKALDADAFQRVLEELLSESTELDNFKRLNFTGFAKIVKKHDKLYPKYPSVKSLLEVRLKELPSHSEEYSPLLYRISFLYNILRSNFNTASEPLASASKFSSIVSNDIDM
B3: Vtc4* (Vtc4(1–487), SPX and TTM domains of Vtc4 without the transmembrane domain) (domain or fragment)
chain: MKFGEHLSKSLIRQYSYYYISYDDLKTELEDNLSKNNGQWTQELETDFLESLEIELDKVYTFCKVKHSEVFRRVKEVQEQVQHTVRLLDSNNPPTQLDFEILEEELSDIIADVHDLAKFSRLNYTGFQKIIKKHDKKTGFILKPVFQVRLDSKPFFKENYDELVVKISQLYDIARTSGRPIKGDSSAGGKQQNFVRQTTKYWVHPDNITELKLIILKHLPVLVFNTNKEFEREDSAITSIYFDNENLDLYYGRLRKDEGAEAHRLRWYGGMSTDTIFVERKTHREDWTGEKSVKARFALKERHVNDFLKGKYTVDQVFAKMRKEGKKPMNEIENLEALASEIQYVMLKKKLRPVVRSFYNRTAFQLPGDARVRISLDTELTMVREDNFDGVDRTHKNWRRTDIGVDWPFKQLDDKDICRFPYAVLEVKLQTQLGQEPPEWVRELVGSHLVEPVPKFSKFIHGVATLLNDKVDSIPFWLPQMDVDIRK
modifications: RED-tris-NTA 2nd generation dye on the His tag (MST); RED-NHS 2nd generation dye (MST with TTM2)

Legend:
[1] = biological target: B3; experiment: MST
[2] = biological target: B3; experiment: MST; +100 mM NaCl
[3] = biological target: TTM4 (TTM domain of Vtc4, Vtc4(192–487)) (S. cerevisiae, UniProt P47075 192-487, RED-tris-NTA 2nd generation dye on the His tag); experiment: MST
TTM4 (TTM domain of Vtc4, Vtc4(192–487)), sequence (P47075 192-487): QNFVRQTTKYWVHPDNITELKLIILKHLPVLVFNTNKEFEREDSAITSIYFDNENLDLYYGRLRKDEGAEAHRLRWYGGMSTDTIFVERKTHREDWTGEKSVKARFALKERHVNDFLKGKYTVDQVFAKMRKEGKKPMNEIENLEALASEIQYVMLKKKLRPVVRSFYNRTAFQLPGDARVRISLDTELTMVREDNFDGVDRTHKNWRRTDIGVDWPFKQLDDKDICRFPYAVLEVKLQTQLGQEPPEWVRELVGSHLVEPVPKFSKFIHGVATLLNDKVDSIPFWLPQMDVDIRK

[4] = biological target: B3; experiment: MST; remark: listed apart in the source
[5] = biological target: B3; experiment: MST; 2.5 mM IP6
[6] = biological target: B3; experiment: MST; 2.5 mM 5-IP7
SPX2 K127A = SPX2 K127A (S. cerevisiae, UniProt P43585 1-201, K127A); experiment: MST
SPX2 N121A = SPX2 N121A (S. cerevisiae, UniProt P43585 1-201, N121A); experiment: MST
SPX2 Y19F = SPX2 Y19F (S. cerevisiae, UniProt P43585 1-201, Y19F); experiment: MST
SPX2 S189A = SPX2 S189A (S. cerevisiae, UniProt P43585 1-201, serine 189 to alanine); experiment: MST
SPX2 S187A = SPX2 S187A (S. cerevisiae, UniProt P43585 1-201, serine 187 to alanine); experiment: MST

## B1
[1]
  Kd: 500 µM

## B2
[2]
  Kd: 91 µM
[3]
  Kd: 264 µM
[4]
  Kd: 18.8 µM
[5]
  Kd: > 300 µM
[6]
  Kd: > 1200 µM

## B3
SPX2 K127A
  Kd: 166 µM
SPX2 N121A
  Kd: 118 µM
SPX2 Y19F
  Kd: 633 µM
SPX2 S189A
  Kd: 71 µM
SPX2 S187A
  Kd: 30 µM
